Measurements from patent US7470669B2, “Isolated polypeptide comprising a leptin fragment” (Serono Genetics Institute, S.A., priority 1999, dated 2008).

Tests used:
ob/ob mice = experiment: Food intake of ob/ob mice under daily subcutaneous injections; format: in vivo, mouse; conditions: daily subcutaneous injections of 25 μg over a 12 day period
Protocol: A synthetic peptide with a sequence identical to that of mouse leptin between residues 117-138 was obtained and found to stimulate the oleate-induced binding of ^125I-LDL in primary cultures of rat hepatocytes (FIG. 11B, insert). Daily subcutaneous injections of 25 μg of this synthetic leptin peptide to ob/ob mice had no effect on the food intake over a 12 day period (7.6±0.4 g/day in ob/ob receiving saline and 6.7±0.3 g/day in ob/ob receiving peptide; n=4, NS). Daily injections of 25 μg of mouse leptin caused a reduction of food intake to 4.7±0.5 g/day (n=3; p<0.003 versus controls).

rat LSR = experiment: Ligand blot of 125I-leptin on partially purified rat LSR; format: binding; conditions: 200 ng/mL 125I-leptin
Protocol: Aliquots (72 μg) of partially purified rat liver LSR were separated on a 4%-12% SDS-gradient polyacrylamide gel, and transferred to nitrocellulose as described previously (Yen F. T., Masson M., Clossais-Besnard N., Andre P., Grosset J. M., Bougueleret L., Dumas J. B., Guerassimenko, O., and Bihain B. E. (1999). J Biol Chem 274, 13390-13398) a gel strip stained with Coomassie blue is shown in lane 1. The nitrocellulose strips were washed, blocked, and incubated with anti-rat LSR protein antiserum (1:1000 dilution) (lane 2), or with 200 ng/mL ^125I-leptin (lane 3). The strips were washed and bands were detected as described herein. Image analysis of lane 3 was performed on a Phosphorimager (Molecular Dynamics).
Partially purified rat LSR (240 kDa band complex) was obtained as described previously (Yen F. T., Masson M., Clossais-Besnard N., Andre P., Grosset J. M., Bougueleret L., […] Dumas J. B., Guerassimenko, O., and Bihain B. E. (1999). J Biol Chem 274, 13390-13398.) The band was separated on non-denaturing 4-12% gradient SDS polyacrylamide gel, and was transferred to nitrocellulose by semi-dry transfer (Biorad, 18 V, […]). […]

LSR mRNA = experiment: Northern analysis of LSR mRNA in PLC cells preincubated 24 h with leptin; format: cell-based, human; conditions: preincubated 24 h with 200-400 ng/mL leptin
Protocol: FIGS. 35A and 35B show graphs of LSR activity and mRNA expression measured in PLC cells preincubated 24 h with leptin. In FIG. 35A, PLC monolayers were incubated 24 h at 37° C. with (o) or without (n) 200 ng/mL human recombinant leptin. After washing with PBS, cells were incubated 30 min at 37° C. with increasing concentrations of human leptin, followed by a 2 h incubation at 37° C. with 0.8 mM oleate and 20 μg/mL ^125I-LDL. Cells were washed, and the amount of oleate-induced ^125I-LDL binding was measured as described previously. Results are shown as the mean of triplicate determinations. In FIG. 35B, PLC monolayers were incubated 24 h at 37° C. with 0, 200, or 400 ng/mL human recombinant leptin. After washing with PBS, the cells were harvested. Total RNA was prepared from the cell pellets, and Northerns were performed to detect LSR mRNA, using GAPDH probe as loading control as described previously. Northern blots were scanned on the Phosphorimager (Molecular Dynamics, Sunnyvale, Calif.). Densitometric analysis of the images was performed using the software ImageQuant. Results are shown as the amount of LSR signal relative to that of GAPDH (mean±SD, n=3/condition). […]

Ob-R = target: T1, Ob-R (Mus musculus, UniProt P48356); conditions: Tartaglia et al, 1995; cited from earlier work
T1 sequence (P48356 22-894 isoform P48356-2 limits assumed): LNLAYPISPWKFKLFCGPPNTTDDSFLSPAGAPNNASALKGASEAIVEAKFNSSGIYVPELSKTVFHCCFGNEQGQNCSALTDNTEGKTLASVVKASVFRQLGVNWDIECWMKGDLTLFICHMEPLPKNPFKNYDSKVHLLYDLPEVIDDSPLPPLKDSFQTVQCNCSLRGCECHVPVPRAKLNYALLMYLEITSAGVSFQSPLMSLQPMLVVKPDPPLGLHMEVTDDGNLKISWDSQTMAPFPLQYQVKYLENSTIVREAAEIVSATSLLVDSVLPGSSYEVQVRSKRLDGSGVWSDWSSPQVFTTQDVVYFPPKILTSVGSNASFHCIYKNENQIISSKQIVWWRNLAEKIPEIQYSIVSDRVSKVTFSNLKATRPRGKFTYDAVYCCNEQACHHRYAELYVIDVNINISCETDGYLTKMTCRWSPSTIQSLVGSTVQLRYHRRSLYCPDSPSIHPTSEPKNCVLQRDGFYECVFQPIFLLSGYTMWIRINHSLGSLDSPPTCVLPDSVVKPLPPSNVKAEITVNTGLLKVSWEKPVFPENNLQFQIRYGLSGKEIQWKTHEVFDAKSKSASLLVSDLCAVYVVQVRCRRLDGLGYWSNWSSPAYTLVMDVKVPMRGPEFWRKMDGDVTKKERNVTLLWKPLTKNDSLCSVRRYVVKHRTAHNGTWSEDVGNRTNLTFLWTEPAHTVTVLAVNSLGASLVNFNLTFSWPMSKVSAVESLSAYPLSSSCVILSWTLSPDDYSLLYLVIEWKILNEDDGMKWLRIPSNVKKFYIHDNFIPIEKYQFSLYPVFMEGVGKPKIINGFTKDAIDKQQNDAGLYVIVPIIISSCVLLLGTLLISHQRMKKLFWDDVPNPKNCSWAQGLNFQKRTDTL

LDL-receptor = LDL-receptor (Homo sapiens, UniProt P01130); experiment: Degradation of LDL by the LDL-receptor; format: cell-based; conditions: leptin up to 2 μg/mL
Sequence of LDL-receptor (P01130 22-860, species assumed): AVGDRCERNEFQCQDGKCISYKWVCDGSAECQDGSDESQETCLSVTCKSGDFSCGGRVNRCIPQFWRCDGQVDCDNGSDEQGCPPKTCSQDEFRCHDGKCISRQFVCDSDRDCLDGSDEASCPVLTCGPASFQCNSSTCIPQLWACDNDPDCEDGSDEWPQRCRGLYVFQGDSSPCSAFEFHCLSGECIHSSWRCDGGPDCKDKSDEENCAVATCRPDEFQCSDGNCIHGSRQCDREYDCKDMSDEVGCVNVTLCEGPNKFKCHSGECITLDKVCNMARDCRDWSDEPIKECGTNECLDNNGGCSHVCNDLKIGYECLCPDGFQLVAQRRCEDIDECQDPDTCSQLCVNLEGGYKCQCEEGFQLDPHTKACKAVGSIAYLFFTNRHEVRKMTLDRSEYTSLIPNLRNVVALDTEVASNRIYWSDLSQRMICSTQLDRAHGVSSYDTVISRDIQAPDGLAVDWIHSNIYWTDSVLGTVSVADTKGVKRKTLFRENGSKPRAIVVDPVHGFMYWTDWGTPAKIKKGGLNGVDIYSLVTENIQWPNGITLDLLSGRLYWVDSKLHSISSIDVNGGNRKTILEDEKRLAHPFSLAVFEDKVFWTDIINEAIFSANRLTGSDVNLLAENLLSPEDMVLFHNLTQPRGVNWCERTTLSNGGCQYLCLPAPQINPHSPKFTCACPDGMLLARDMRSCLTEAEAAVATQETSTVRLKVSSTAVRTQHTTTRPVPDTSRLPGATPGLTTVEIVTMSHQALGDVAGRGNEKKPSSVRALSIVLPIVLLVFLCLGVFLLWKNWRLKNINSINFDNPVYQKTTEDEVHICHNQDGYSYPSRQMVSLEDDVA

Row | Substance | food intake (ob/ob mice) [g/day] | binding of 125I-leptin to partially purified rat LSR multimeric complexes (rat LSR) | decrease of hepatocyte LSR mRNA relative to GAPDH (LSR mRNA) | Kd (Ob-R) [nM] | degradation of LDL by the LDL-receptor (LDL-receptor)
1 | CSLPQTSGLQKPESLDGVLEAS (listed as Mus musculus) [mouse peptide, mouse leptin fragment residues 117-138, 22-mer] | 6.7 ± 0.3 | – | – | – | –
2 | leptin: plasma protein of 16 kDa produced by adipocytes; recombinant human or mouse leptin, species depends on the experiment | – | bound | 25-35% | 0.7 | no detectable effect
